# Test results reported in publication PMC9776105.
# Target: single chain variable fragment (scFv) from the CR3022 antibody with a cysteine-containing linker
# Assay: SPR
substance,measurement,value
Spike Receptor Binding Domain SARS-CoV-2 (from UniProt P0DTC2) (domain or fragment),SPR response in the specificity test,4.22 ru
same,change in Resonance Unit at 50 ng/mL RBD,1.13 RU
same,change in Resonance Unit at 100 ng/mL RBD,3.01 RU
same,change in Resonance Unit at 150 ng/mL RBD,3.74 RU
same,change in Resonance Unit at 200 ng/mL RBD,3.98 RU
